Results: paper PMC9282234

Legend:
FUS-SNAP, P35637 [1] = biological target: T1, FUS-SNAP, P35637; test: nanoparticle tracking analysis; conditions: remark: other sources report otherwise
T1 chain: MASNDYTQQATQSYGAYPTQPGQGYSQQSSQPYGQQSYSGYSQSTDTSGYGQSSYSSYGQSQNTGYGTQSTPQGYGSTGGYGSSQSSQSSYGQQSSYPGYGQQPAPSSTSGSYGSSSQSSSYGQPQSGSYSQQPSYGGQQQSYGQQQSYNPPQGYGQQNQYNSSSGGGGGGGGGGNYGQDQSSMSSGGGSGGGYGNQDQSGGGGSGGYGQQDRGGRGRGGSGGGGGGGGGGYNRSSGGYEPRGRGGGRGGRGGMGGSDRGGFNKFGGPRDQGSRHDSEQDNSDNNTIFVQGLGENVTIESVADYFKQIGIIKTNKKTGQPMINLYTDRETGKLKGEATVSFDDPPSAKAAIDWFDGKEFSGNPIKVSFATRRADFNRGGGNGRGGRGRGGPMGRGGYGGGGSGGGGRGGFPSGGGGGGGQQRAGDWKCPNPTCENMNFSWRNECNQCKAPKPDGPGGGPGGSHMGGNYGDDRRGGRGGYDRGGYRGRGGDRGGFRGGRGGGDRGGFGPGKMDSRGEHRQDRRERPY

FUS-SNAP, P35637 [2] = biological target: T1, FUS-SNAP, P35637; test: dynamic light scattering; conditions: remark: other sources report otherwise

B1: FUS-SNAP, P35637 1-526 (natural protein)
chain: T1 chain
Question: B1 was tested. Which percent of the protein molecules in mesoscale clusters (250 nM FUS-SNAP) (FUS-SNAP, P35637 [1]) did it give?
Answer: The percent of the protein molecules in mesoscale clusters (250 nM FUS-SNAP) was 0.15%.

Question: What about the stoichiometry N (molecules per cluster) (FUS-SNAP, P35637 [2]) of the same binder?
Answer: The stoichiometry N (molecules per cluster) was less than 10.
